Results taken from patent US20260209301A1, “Galanin-2 Receptor Agonists” (LIFEARC, priority 2022, published 2026).
Blank lines part the entries; values can stand above or below the compound they belong to. Non-standard residues stand in square brackets, D forms with d. Residues, ends and D or L forms follow the SMILES beside them. No end group written: not given here. *: point of attachment. Fmoc = O=C(OCC1c2ccccc2-c2ccccc21)*; Cha = N[C@@H](CC1CCCCC1)C(=O)O; AMC = Cc1cc(=O)oc2cc(N*)ccc12

Experiments:
mouse GalR2 = target: T1, mouse GalR2 (Mus musculus, UniProt O88854); assay: Calcium assay at orthologue receptor; format: cell-based
T1 sequence (O88854 1-371): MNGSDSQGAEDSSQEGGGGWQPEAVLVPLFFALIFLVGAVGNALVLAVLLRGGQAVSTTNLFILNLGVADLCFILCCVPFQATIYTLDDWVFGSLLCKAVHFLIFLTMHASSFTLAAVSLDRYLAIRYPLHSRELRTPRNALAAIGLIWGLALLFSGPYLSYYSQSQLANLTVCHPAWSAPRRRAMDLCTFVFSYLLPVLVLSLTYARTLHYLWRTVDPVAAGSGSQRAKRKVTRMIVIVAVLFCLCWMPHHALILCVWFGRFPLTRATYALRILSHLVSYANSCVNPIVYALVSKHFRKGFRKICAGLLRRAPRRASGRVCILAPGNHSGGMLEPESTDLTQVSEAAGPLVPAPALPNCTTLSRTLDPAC
Text: (§1) These species were chosen as they represent potential downstream in vivo models to be used. Within native galanin amino acid residues 1-15 are conserved across species, we would therefore expect the Gal FC fusions comprising amino acids 2 to 13 to retain GalR2 activity in these species. Calcium imaging was used to define receptor activity.

cynomolgus GalR2 = assay: Calcium assay at orthologue receptor; format: cell-based, Macaca fascicularis; conditions: Table 8; Calcium assays; mean +/− standard deviation
Text: as §1

GalR1 [1] = target: T2, GalR1 (Homo sapiens, UniProt P47211); assay: cAMP HTRF assay, CHO GalR1 cells; format: cell-based; set-up: expressed in transfected cells; host or cells: CHO (Flp-In, pcDNA5/FRT); conditions: for Emax: read-out: GalR1 cAMP IA (%); for GalR1 activity (cAMP assay), linker variants: Table 7, highest concentration tested 10 μM
T2 sequence (P47211 1-349): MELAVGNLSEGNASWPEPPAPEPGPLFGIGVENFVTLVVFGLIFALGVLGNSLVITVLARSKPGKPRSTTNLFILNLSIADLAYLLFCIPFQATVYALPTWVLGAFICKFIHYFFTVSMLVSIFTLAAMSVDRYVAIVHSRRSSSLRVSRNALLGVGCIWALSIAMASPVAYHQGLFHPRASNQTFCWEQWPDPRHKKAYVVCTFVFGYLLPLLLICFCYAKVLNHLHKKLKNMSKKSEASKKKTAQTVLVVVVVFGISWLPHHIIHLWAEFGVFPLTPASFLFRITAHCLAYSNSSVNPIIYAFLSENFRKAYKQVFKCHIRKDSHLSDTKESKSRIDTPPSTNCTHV
Description: The CAMP dynamic 2 kit (Cisbio International) was used as a competitive immunoassay to measure Homogenous Time-Resolved Fluorescence (HTRF). […] Addition of detection reagent involved adding 5 μl d2 conjugated CAMP followed by 5 μl anti-CAMP cryptate conjugate. The two reagents were not pre-mixed; these were both prepared in cell lysis buffer and incubated at room temperature in the dark for one hour.

GalR1 [2] = target: T2, GalR1; assay: β-arrestin recruitment, PathHunter CHO-K1 GALR1 cells; format: cell-based; conditions: for Emax: CHO-K1, 1.5 h, read-out: GalR1 Beta Arrestin IA (%)
Description: (§2) Ligands were prepared at half log dilutions using cell plating reagent 2. 5 μl of each ligand was added to cells and plates incubated at 37° C. for 90 minutes. DiscoverX PathHunter detection kit (DiscoverX, USA) was added to cells as described my manufacturer's guidelines and plates incubated for 60 minutes at room temperature in the dark. Chemiluminescent signal was measured using the PHERAstar FS (BMG, Germany).

GALR2 [3] = target: T3, GALR2 (Homo sapiens, UniProt O43603); assay: Calcium assay, CHO GalR2 cells (FLIPR); conditions: for GalR2 Calcium, mean pEC50: Table 2, n ≥ 3; for GalR2 Calcium, mean pEC50 / GalR2 activity (calcium assay), linker variants / GalR2 activity (calcium assay), warhead length: mean +/− standard deviation; for GalR2 activity (calcium assay), linker variants: Table 7; for GalR2 activity (calcium assay), linker variants / GalR2 activity (calcium assay), warhead length: highest concentration tested 10 μM; for GalR2 activity (calcium assay), warhead length: Table 6
T3 sequence (O43603 1-387): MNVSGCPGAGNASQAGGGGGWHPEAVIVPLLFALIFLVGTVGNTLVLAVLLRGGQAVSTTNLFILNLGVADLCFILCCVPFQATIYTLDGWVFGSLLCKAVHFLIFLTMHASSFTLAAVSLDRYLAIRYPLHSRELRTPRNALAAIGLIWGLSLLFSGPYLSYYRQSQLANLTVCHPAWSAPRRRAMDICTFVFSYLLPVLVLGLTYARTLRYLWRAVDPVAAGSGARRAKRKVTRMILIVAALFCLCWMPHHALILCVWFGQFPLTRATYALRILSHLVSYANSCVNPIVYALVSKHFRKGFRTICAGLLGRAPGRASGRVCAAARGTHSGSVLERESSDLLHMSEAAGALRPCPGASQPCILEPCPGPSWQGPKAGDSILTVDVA
Description: CHO GalR2 cells were plated at 10,000 cells per well in black clear bottom plates (corning, USA) and incubated overnight at 37° C. with 5% CO2. […] Ligands were prepared at a 5× concentration and added to cells using the FLIPR (Molecular Devices, USA). Baseline was typically 20 seconds before ligand addition. […] For analysis, fluorescence was normalised to pre-addition baseline and peak fluorescence used for all quantification.
In brief, a panel of functional cell-based microtiter-plate assays were developed using recombinant GalR1 and GalR2 receptors stably expressed in CHO cells. […] Nominally this equated to 10 serial (~3fold) dilutions with highest concentrations of 10-1 μM as appropriate.
In addition to generating both potency and efficacy estimates, the latter being expressed relative to native galanin, both G-protein and non-G-Protein signalling pathways were measured.

GALR2 [4] = target: T3, GALR2; assay: β-arrestin recruitment, PathHunter CHO-K1 GALR2 cells; format: cell-based; conditions: for GalR2 Beta Arrestin, mean pEC50: Table 2, mean +/− standard deviation, n ≥ 3
Description: as §2

[5] = Table 3, mean +/− standard deviation, n ≥ 3, highest concentration 1 μM (galnon 100 μM)
[6] = maximum response at highest concentration tested (1 μM, except galnon at 100 μM), relative to galanin

Compound: CC(C)C[C@H](NC(=O)CNC(=O)[C@H](CC(N)=O)NC(=O)[C@H](CCCCN)NC(=O)[C@H](CC(=O)O)NC(=O)[C@H](CO)NC(=O)[C@H](Cc1ccccc1)NC(=O)[C@H](CO)NC(=O)[C@H](CCCNC(=N)N)NC(=O)[C@H](Cc1c[nH]cn1)NC(=O)[C@H](CC(N)=O)NC(=O)CNC(=O)[C@@H](NC(=O)[C@H](C)NC(=O)[C@H](Cc1c[nH]cn1)NC(=O)[C@@H]1CCCN1C(=O)CNC(=O)[C@H](CC(C)C)NC(=O)[C@H](CC(C)C)NC(=O)[C@H](Cc1ccc(O)cc1)NC(=O)CNC(=O)[C@H](C)NC(=O)[C@H](CO)NC(=O)[C@H](CC(N)=O)NC(=O)[C@H](CC(C)C)NC(=O)[C@@H](NC(=O)[C@H](Cc1c[nH]c2ccccc12)NC(=O)CN)[C@@H](C)O)C(C)C)C(=O)N[C@H](C(=O)N[C@@H](CO)C(=O)O)[C@@H](C)O [Galanin 1-30 (human), reference compound]
EC50 (mouse GalR2): 0.001 µM | Cynomolgus GalR2 activity (cynomolgus GalR2): 9.6 +/− 0.2

Compound: CC[C@H](C)[C@H](NC(=O)[C@H](C)NC(=O)[C@H](Cc1c[nH]cn1)NC(=O)[C@@H]1CCCN1C(=O)CNC(=O)[C@H](CC(C)C)NC(=O)[C@H](CC(C)C)NC(=O)[C@H](Cc1ccc(O)cc1)NC(=O)CNC(=O)[C@H](C)NC(=O)[C@H](CO)NC(=O)[C@H](CC(N)=O)NC(=O)[C@H](CC(C)C)NC(=O)[C@@H](NC(=O)[C@@H](N)Cc1c[nH]c2ccccc12)[C@@H](C)O)C(=O)N[C@@H](CC(=O)O)C(=O)N[C@@H](CC(N)=O)C(=O)N[C@@H](Cc1c[nH]cn1)C(=O)N[C@@H](CCCNC(=N)N)C(=O)N[C@@H](CO)C(=O)N[C@@H](Cc1ccccc1)C(=O)N[C@@H](Cc1c[nH]cn1)C(=O)N[C@@H](CC(=O)O)C(=O)N[C@@H](CCCCN)C(=O)N[C@@H](Cc1ccc(O)cc1)C(=O)NCC(=O)N[C@@H](CC(C)C)C(=O)N[C@@H](C)C(N)=O [Galanin 2-29 (rat), reference compound]
Emax (GalR1 [1]): 90.8% | Emax (GalR1 [2]): 67.2%

Compound: Cc1cc(=O)oc2cc(NC(=O)[C@H](CCCCN)NC(=O)[C@H](CC3CCCCC3)NC(=O)OCC3c4ccccc4-c4ccccc43)ccc12 [Galnon, reference compound] (Fmoc-[Cha]-Lys-{AMC})
EC50 (GALR2 [3]): 20 µM | EC50 (GalR1 [1]): > 1 µM | Emax (GalR1 [1]): 2.9% | EC50 (GALR2 [4]): 158 µM | EC50 (GalR1 [2]): > 1 µM | Emax (GalR1 [2]): 40.1%

Compound: GWTLNSAGYLLGPQPPGFSPFR-NH2 (C-terminus assumed) [M617, reference compound]
Emax (GalR1 [1]): 90.1% | Emax (GalR1 [2]): 99%

GalR2 Calcium, mean pEC50 (GALR2 [3]): 6.4 +/− 0.3 | GalR1 cAMP pEC50 (GalR1 [1]; [5]): 8.4 +/− 0.2 | GalR1 cAMP IA (%) (GalR1 [1]; [6]): 93.4 +/− 11.6% | GalR2 Beta Arrestin, mean pEC50 (GALR2 [4]): 5.7 +/− 0.4 | GalR1 Beta Arrestin pEC50 (GalR1 [2]; [5]): 5.72 +/− 0.40 | GalR1 Beta Arrestin IA (%) (GalR1 [2]; [6]): 88.1 +/− 7.1%
Compound: Gal1-30FC: galanin 1-30 fused to human IgG1 FC, mature chimeric protein SEQ ID NO: 23

Compound: Gal2-13FC (ALA-12): Gal2-13FC with alanine at position 12; SEQ ID NO: 61
activation of GalR2 in vitro (in words) (GALR2 [4]; positions 12 and 13 study, FIG. 2 / Table 4): failed to activate GalR2

Compound: Gal2-13FC GGS2: Gal2-13 FC fusion with GGSGGS linker; SEQ ID NO: 34
GalR2 activity (calcium assay), linker variants (GALR2 [3]): 6.4 +/− 0.0 | GalR1 activity (cAMP assay), linker variants (GalR1 [1]; mean +/− standard deviation): 5.5 +/− 0.2

Compound: Gal2-13FC GGS: Gal2-13 FC fusion with GGS linker; SEQ ID NO: 33
GalR2 activity (calcium assay), linker variants (GALR2 [3]): 6.4 +/− 0.1 | GalR1 activity (cAMP assay), linker variants (GalR1 [1]; mean +/− standard deviation): 5.3 +/− 0.1

Compound: Gal2-13FC NL: Gal2-13 FC fusion with no linker; SEQ ID NO: 36
GalR2 activity (calcium assay), linker variants (GALR2 [3]): 7.3 +/− 0.1 | GalR1 activity (cAMP assay), linker variants (GalR1 [1]; mean +/− standard deviation): 5.9 +/− 0.2

Compound: Gal2-13FC PA4: Gal2-13 FC fusion with PAPAPAPA linker; SEQ ID NO: 37
GalR2 activity (calcium assay), linker variants (GALR2 [3]): 6.8 +/− 0.1 | GalR1 activity (cAMP assay), linker variants (GalR1 [1]; mean +/− standard deviation): 6.1 +/− 0.0

Compound: Gal2-18FC: galanin 2-18, AEAAAKEAAAKA linker, human IgG1 FC; SEQ ID NO: 26
GalR2 Calcium, mean pEC50 (GALR2 [3]): 6.7 +/− 0.1 | GalR2 activity (calcium assay), warhead length (GALR2 [3]): 6.7 +/− 0.1 | GalR2 Beta Arrestin, mean pEC50 (GALR2 [4]): 7.3 +/− 0.1

Compound: Gal2-24FC: galanin 2-24, AEAAAKEAAAKA linker, human IgG1 FC; SEQ ID NO: 27
GalR2 Calcium, mean pEC50 (GALR2 [3]): 6.9 +/− 0.3 | GalR2 activity (calcium assay), warhead length (GALR2 [3]): 6.9 +/− 0.3 | GalR2 Beta Arrestin, mean pEC50 (GALR2 [4]): 7.6 +/− 0.0

Compound: RGRGNWTLNSAGYLLGPVLPPPALALA-NH2 (C-terminus assumed) [M1145, reference compound]
Emax (GalR1 [1]): 86.7% | Emax (GalR1 [2]): 24.5%
